Experimental data published in patent publication US20100310542A1, “Pharmaceutical Compositions for treating wouds and related methods” (HEALOR LTD., priority 2007, published 2010).

Tested on: keratin 1
Test: keratin 1 expression by Western blot in keratinocytes
Assay type: cell-based, mice
Details: visfatin 0.0001 μg/ml or L-alpha 100 ng/ml, 24 hours after calcium-induced differentiation
Description: Medium A and B are both EMEM eagle's minimal essential medium from Biological Industries (Israel) containing 8% CHELEX™ treated fetal bovine serum. CHELEX™ is a strong chelator which binds free Ca^2+ and Mg^2+ ions to prevent these ions from being bioavailable to the cultured cells.
Primary skin keratinocytes isolated from the tails of adult mice (7-10 months up to 2 years) were maintained in medium A (MEM) as described above. After 5 days in (medium A), the growth medium in half of the cultured plates was replaced with medium B (as described above)
Next visfatin or L-alpha were each individually added to cells cultured in medium A (FIG. 19A) and cells cultured in medium B (FIG. 19B) as indicated in FIG. 19. The final concentration in the culture medium of visfatin was 0.0001 μg/ml visfatin. The final concentration in the culture medium of L-alpha was 100 ng/ml.
Cell differentiation was induced by elevating calcium from 0.05 mM to 0.12 mM as described above. Twenty-four (24) hours after differentiation cells were harvested and Western Blot analysis was performed. […] Keratin 1 expression was then quantified using standard densitometric methods […]
Cell differentiation was then induced by elevating calcium levels in the culture medium from 0.05 mM to 0.12 mM. […] Expression was assessed using standard Western blotting and densitometry techniques.

B1: visfatin: murine visfatin (ALEXIS), adipocytokine that functions as an insulin analog (protein, UniProt Q99KQ4 1-491, looked up)
Nicotinamide …: MNAAAEAEFNILLATDSYKVTHYKQYPPNTSKVYSYFECREKKTENSKVRKVKYEETVFYGLQYILNKYLKGKVVTKEKIQEAKEVYREHFQDDVFNERGWNYILEKYDGHLPIEVKAVPEGSVIPRGNVLFTVENTDPECYWLTNWIETILVQSWYPITVATNSREQKKILAKYLLETSGNLDGLEYKLHDFGYRGVSSQETAGIGASAHLVNFKGTDTVAGIALIKKYYGTKDPVPGYSVPAAEHSTITAWGKDHEKDAFEHIVTQFSSVPVSVVSDSYDIYNACEKIWGEDLRHLIVSRSTEAPLIIRPDSGNPLDTVLKVLDILGKKFPVTENSKGYKLLPPYLRVIQGDGVDINTLQEIVEGMKQKKWSIENVSFGSGGALLQKLTRDLLNCSFKCSYVVTNGLGVNVFKDPVADPNKRSKKGRLSLHRTPAGNFVTLEEGKGDLEEYGHDLLHTVFKNGKVTKSYSFDEVRKNAQLNIEQDVAPH
- expression of keratin 1 (medium A (no KCl)): decreased relative to the control sample
- expression of keratin 1 (medium B (KCl 0.4 mg/ml)): not significantly altered
